Laboratory results as given in patent publication US20170335004A1 (LA TROBE UNIVERSITY, published 2017).

Columns and labels:
[1] = biological target: T1, BSA (bovine, UniProt P02769); assay: ELISA of purified hFab 6.5 on a panel of coated antigens, absorbance 450 nm
T1 construct: also called bovine serum albumin

[2] = biological target: T2, hFn14-Fc (Fc-tagged ectodomain of human Fn14) (human, UniProt Q9NP84 29-78); assay: SPR (ProteOn XPR36), hFab amine-coupled, hFn14-Fc as analyte, Langmuir fit, average of 5 measurements
T2 construct: also called Fc-tagged hFn14; not shown: Fc tag
T2 sequence (Q9NP84 29-78): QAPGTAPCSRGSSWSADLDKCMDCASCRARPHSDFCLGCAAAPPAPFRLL
Description: The affinity of wildtype Fab clone 6.5 and the light chain shuffled mutants was measured by surface Plasmon resonance (SPR) using the ProteOn XPR36TM instrument (BioRad). Individual channels of a six channel GLC chip were coupled with the relevant hFab ligand at 5 μg/ml in 0.1M sodium acetate buffer pH 4.5 using amine coupling according to the manufacturer's instructions. Five dilutions of analyte hFn14-Fc were prepared in PBS containing 0.005% Tween20 (running buffer) and allowed to flow over the coupled hFab at […] flow rate for 500 seconds to evaluate the “on rate” (ka). This was followed by flow with the running buffer for 1200 seconds to evaluate the “off rate” (kd). This process was repeated until the analyte dilution series allowed a good kinetic fit using the Langmuir statistical model for analysing the ka and kd, where the affinity constant (KD) is the kd/ka. The best fit data was analysed using the ProteOn software measured by Chi2, where the lowest value is the best fit of the model to the SPR binding curves.

T1 sequence (P02769 25-607 limits assumed): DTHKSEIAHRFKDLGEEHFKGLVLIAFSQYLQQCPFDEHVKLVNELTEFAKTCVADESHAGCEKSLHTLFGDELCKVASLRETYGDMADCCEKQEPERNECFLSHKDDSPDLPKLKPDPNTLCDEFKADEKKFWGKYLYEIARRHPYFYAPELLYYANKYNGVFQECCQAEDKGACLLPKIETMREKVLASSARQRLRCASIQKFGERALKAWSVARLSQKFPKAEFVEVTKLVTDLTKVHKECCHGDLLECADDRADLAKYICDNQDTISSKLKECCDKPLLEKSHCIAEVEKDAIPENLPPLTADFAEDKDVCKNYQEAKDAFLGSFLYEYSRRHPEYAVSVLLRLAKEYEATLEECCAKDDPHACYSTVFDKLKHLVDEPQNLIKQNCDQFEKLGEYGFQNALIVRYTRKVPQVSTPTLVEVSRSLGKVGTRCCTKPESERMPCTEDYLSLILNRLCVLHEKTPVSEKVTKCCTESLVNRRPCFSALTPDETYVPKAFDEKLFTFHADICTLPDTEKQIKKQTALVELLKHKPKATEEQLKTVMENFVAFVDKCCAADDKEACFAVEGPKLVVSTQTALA

B1: hFab 6.5 (Fab, V domains shown)
VH: QVQLVQSGGGLVKPGGSLRLSCAASGFTFTSYAMSWVRQAPGKGLEWVSAISGSGGSTYYADSVKGRFTISRDNPKNTLYLQMNSLRAEDTAVYYCARVRANYYYGMDVWGQGTLVTVSS
VL: LTQSPGTLSLSPGERATLSCRASQSVSSSTLAWYQQKPGQTPRLLIYGASTRATGIPARFSGSGSGTDFTLTISRLEPEDFAVYYCQQYGSSRLTFGGGTKVEIKR
notes: Human Fab from a phage display library, kappa light chain, expressed in the E. coli periplasm; also called clone 6.5; wildtype Fab 6.5
For B1, the binding result [1] was “no binding (tested: 10 ug/ml)”, the Kd [2] was 22.1 nM and the koff [2] was 0.00207 s⁻¹. For the same binder, the kon [2] was 94000 M⁻¹ s⁻¹.
